Measurements reported in paper PMC8461249.

Columns and labels:
[1] = target: TβRII-Fc (TβRII extracellular domain fused to human IgG1 Fc) (human) (UniProt P37173); test: SPR; Biacore 3000, CM5 chip with anti-human Fc mixed with anti-mouse Fc antibodies; TβRII-SE/Fc or TβRII-Fc captured to 100–140 RU; TGF-β1, -β2 or -β3 injected at 0.4 to 30 nM, 50 μl/min, association 90 s, dissociation 300 s (900 s for slow rates); 0.1% surfactant; double referencing; 1:1 binding model; stoichiometry from Rmax and mass ratios
Sequence of TβRII-Fc (TβRII extracellular domain fused to human IgG1 Fc) (human) (P37173 23-166): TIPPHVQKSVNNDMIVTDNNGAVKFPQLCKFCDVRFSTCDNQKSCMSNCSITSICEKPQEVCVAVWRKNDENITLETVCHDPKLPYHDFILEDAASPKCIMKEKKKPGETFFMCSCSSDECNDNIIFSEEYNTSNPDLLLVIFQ

[2] = target: TβRII-SE/Fc (TβRII-Soluble Endogenous fused to the human IgG1 Fc domain) (human); test: as above

| stoichiometry N (TGF-β dimer per bivalent Fc ligand) [1] | stoichiometry N (TGF-β dimer per bivalent Fc ligand) [2] | Substance |
| --- | --- | --- |
| 1 | 1 | TGF-β1 (ligand) |
|  | 1 | TGF-β3 (ligand) |
| 1 | 1 | TGF-β2 (ligand) |
